{
  "source": "paper PMC12720783",
  "target": "LcrG, full length (Yersinia pseudotuberculosis) (UniProt P69958)",
  "sequence (P69958 whole entry)": "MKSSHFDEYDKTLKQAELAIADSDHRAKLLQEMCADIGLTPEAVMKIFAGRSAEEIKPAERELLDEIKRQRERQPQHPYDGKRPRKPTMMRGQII",
  "test": "ITC",
  "data": [
    {"substance": "LcrV, full length (from UniProt P23994 1-326) (natural protein)", "values": [
      {"measurement": "stoichiometry N", "value": 1}
    ]}
  ]
}
